{
  "source": "patent US20210388084A1",
  "about": "(JJP BIOLOGICS SP Z O O, published 2021)",
  "key": {"[1]": {"target": "T1, recombinant C-terminal polyhistidine-tagged human (extracellular) CD89 (human, UniProt P24071 22-227)", "T1 construct": "extracellular domain; bought (Sino Biological); also called rhuCD89", "experiment": "ELISA, coated rhuCD89, half-maximum binding", "experimental": "After extensive washing with PBS/0.05% Tween 20, plates were blocked with PBS/0.05% Tween 20/1% BSA (Roche) for 1 hour at RT. Subsequently, plates were incubated with 50 μL titrated (in block buffer) purified mouse anti-human CD89 antibody/well for 1 hour at RT. […] After extensive washing in PBS/0.05% Tween 20, binding of antibodies on rhuCD89 was determined with 1:5,000 diluted horseradish peroxidase (HRP)-conjugated goat anti-mouse IgG Fey-specific antibodies (Jackson ImmunoResearch) for 1 hour at RT, followed by a ready-to-use solution of TMB substrate (Invitrogen) for colorimetric detection.\nAfter extensive washing with PBS/0.05% Tween 20, plates were blocked with PBS/0.05% Tween 20/1% BSA (Roche) for 1 hour at RT. Subsequently, plates were incubated with and without 50 μL titrated (in block buffer) purified chimeric mouse/human anti-human CD89 antibody/well for 1 hour at RT. After extensive washing in PBS/0.05% Tween 20, binding of antibodies on rhuCD89 was determined with 1:5,000 diluted horseradish peroxidase (HRP)-conjugated goat anti-human IgG Fey-specific antibodies (Jackson ImmunoResearch) for 1 hour at RT, followed by a ready-to-use solution of TMB substrate (Invitrogen) for colorimetric detection."}, "[2]": {"target": "T2, membrane-bound full-length human CD89 (human, UniProt P24071 22-287)", "T2 construct": "on stably or transiently transfected HEK293F cells; also called FcalphaRI; huCD89", "experiment": "FACS, HEK293F-huCD89, 4C +NaN3, Ab 10 ug/mL then IgA; competitor non-aggr serum IgA", "experimental": "Then, 10 μL/tube (ie, 0.1×10⁶ cells) of these cells were incubated with or without 50 μL purified mouse anti-human CD89 antibody at 20 μg/mL (in PBS/BSA/NaN₃) for 30 minutes at 4° C. […] After extensive washing in PBS/BSA/NaN₃, 1:200 diluted PE-conjugated streptavidin (Jackson ImmunoResearch) was added, and incubated for 30 minutes at 4° C. After extensive washing in PBS/BSA/NaN₃, cells were fixed in 2% formaldehyde in PBS/BSA/NaN₃ for 30 minutes at 4° C."}, "[3]": {"target": "T2, membrane-bound full-length human CD89", "experiment": "FACS, HEK293F-huCD89, unlabeled Ab 10 ug/mL first; competitor A59-PE", "experimental": "(§1) Then, 10 μL/tube (ie, 0.1×10⁶ cells) of these cells were incubated with or without 100 μL purified mouse anti-human CD89 antibody at 10 μg/mL (in PBS/BSA/NaN₃) for 30 minutes at 4° C. […] After extensive washing in PBS/BSA/NaN₃, cells were fixed in 2% formaldehyde in PBS/BSA/NaN₃ for 30 minutes at 4° C."}, "[4]": {"target": "T2, membrane-bound full-length human CD89", "experiment": "FACS, HEK293F-huCD89, 4C +NaN3, Ab 10 ug/mL then IgA; competitor heat-aggr serum IgA", "experimental": "To mimic human IgA immune complexes, human (serum-derived) IgA (Bethyl Laboratories) was heated at 63° C. for 30 minutes, and cooled down to RT followed by centrifugation at 4° C. 12000×g for 2 minutes to remove any insoluble protein precipitation.\nThen, 10 μL/tube (ie, 0.1×10⁶ cells) of these cells were incubated with or without 50 μL purified mouse anti-human CD89 antibody at 20 μg/mL (in PBS/BSA/NaN₃) for 30 minutes at 4° C."}, "[5]": {"target": "T2, membrane-bound full-length human CD89", "experiment": "FACS, HEK293F-huCD89, 24 h 37C no NaN3, Ab 10 ug/mL then IgA; competitor heat-aggr serum IgA", "experimental": "(§2) After extensive washing in PBS/BSA/NaN₃, 1:200 diluted PE-conjugated streptavidin (Jackson ImmunoResearch) was added, and incubated for 30 minutes at 4° C. After extensive washing in PBS/BSA/NaN₃, cells were fixed in 2% formaldehyde in PBS/BSA/NaN₃ for 30 minutes at 4° C."}, "[6]": {"target": "T2, membrane-bound full-length human CD89", "experiment": "FACS, HEK293F-huCD89, unlabeled Ab 10 ug/mL first; competitor A3-PE", "experimental": "as §1"}, "[7]": {"target": "T2, membrane-bound full-length human CD89", "experiment": "FACS, HEK293F-huCD89, unlabeled Ab 10 ug/mL first; competitor MIP8a-PE", "experimental": "as §1"}, "[8]": {"target": "T3, chimeric human/cynomolgus monkey CD89-I (human/cynomolgus monkey chimera, UniProt P24071 22-287)", "T3 construct": "also called ΔGln22-Lys46 human EC1-CD89; I (22-46)", "T3 chain": "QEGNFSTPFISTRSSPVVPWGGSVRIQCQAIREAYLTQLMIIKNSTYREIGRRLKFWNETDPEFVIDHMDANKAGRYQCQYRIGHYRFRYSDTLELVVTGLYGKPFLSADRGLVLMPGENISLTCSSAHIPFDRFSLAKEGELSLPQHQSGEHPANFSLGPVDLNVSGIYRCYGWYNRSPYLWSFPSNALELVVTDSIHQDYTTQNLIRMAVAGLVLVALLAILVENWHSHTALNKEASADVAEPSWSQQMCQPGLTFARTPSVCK", "experiment": "FACS, transiently transfected HEK293F, 10 ug/mL; ++ strong, + intermediate, -/+ weak", "experimental": "(§3) After 48 hours, the binding of CD89/IgA blocking mouse anti-human CD89 antibodies to aforementioned chimeric human CD89/cynomolgus monkey CD89 constructs on transfected cells was analyzed by FACS analysis. To this end, transient transfected HEK293F cells were put at 10×10⁶ cells/mL in ice-chilled phosphate-buffered saline containing 0.1% BSA (Sigma)/0.05% NaN₃ (PBS/BSA/NaN₃) supplemented with 50 μg/mL human IgGs (blocking Fcγ receptors; Sigma) for 10 minutes at 4° C. Then, 10 μL/tube (ie, 0.1×10⁶ cells) of these cells were incubated with or without 100 μL purified mouse anti-human CD89 antibody at 10 μg/mL (in PBS/BSA/NaN₃) for 30 minutes at 4° C. […] After extensive washing in PBS/BSA/NaN₃, cells were subsequently incubated with 1:200 diluted PE-conjugated goat anti-mouse IgG Fey-specific antibodies (Jackson ImmunoResearch) for 30 minutes at 4° C. After extensive washing in PBS/BSA/NaN₃, cells were fixed in 2% formaldehyde in PBS/BSA/NaN₃ for 30 minutes at 4° C."}, "[9]": {"target": "T4, chimeric human/cynomolgus monkey CD89-IV (human/cynomolgus monkey chimera, UniProt P24071 22-287)", "T4 construct": "also called ΔArg97-Gly121 human EC1-CD89", "T4 chain": "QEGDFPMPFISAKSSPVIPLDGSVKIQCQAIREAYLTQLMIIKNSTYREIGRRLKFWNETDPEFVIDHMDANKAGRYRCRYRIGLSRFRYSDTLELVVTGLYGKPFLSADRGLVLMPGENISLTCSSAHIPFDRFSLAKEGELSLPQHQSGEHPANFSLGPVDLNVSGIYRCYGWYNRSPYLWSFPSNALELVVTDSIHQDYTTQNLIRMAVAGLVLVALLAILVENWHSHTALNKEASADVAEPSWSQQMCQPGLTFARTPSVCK", "experiment": "FACS, transiently transfected HEK293F, 10 ug/mL; ++ strong, + intermediate, -/+ weak", "experimental": "as §3"}, "[10]": {"target": "T2, membrane-bound full-length human CD89", "experiment": "FACS, HEK293F-huCD89, 24 h 37C no NaN3, Ab 10 ug/mL then IgA; competitor non-aggr serum IgA", "experimental": "as §2"}, "[11]": {"target": "T5, chimeric bovine EC1-Fcγ2R/human EC2-CD89 (bovine/human chimera)", "T5 chain": "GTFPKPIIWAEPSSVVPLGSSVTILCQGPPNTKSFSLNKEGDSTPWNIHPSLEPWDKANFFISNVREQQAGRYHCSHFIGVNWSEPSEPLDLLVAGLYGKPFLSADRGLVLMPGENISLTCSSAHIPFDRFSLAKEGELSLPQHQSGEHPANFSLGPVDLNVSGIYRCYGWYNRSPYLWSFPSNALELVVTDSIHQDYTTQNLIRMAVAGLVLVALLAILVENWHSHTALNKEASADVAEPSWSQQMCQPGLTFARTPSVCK", "experiment": "FACS, transiently transfected HEK293F", "experimental": "After 48 hours and/or 72 hours, the binding of CD89/IgA blocking mouse anti-human CD89 antibodies to aforementioned chimeric human/bovine receptors on transfected cells was analyzed by FACS analysis. To this end, transient transfected HEK293F cells were put at 10×10⁶ cells/mL in ice-chilled phosphate-buffered saline containing 0.1% BSA (Sigma)/0.05% NaN₃ (PBS/BSA/NaN₃) supplemented with 50 μg/mL human IgGs (blocking Fcγ receptors; Sigma) for 10 minutes at 4° C. Then, 10 μL/tube (ie, 0.1×10⁶ cells) of these cells were incubated with or without 100 μL purified mouse anti-human CD89 antibody at 10 μg/mL (in PBS/BSA/NaN₃) for 30 minutes at 4° C. […] After extensive washing in PBS/BSA/NaN₃, cells were subsequently incubated with 1:200 diluted PE-conjugated goat anti-mouse IgG Fey-specific antibodies (Jackson ImmunoResearch) for 30 minutes at 4° C. After extensive washing in PBS/BSA/NaN₃, cells were fixed in 2% formaldehyde in PBS/BSA/NaN₃ for 30 minutes at 4° C."}, "[12]": {"target": "T6, membrane full-length cynomolgus monkey CD89 (cynomolgus monkey)", "T6 construct": "also called cynoCD89; cynomolgus EC1-CD89", "T6 chain": "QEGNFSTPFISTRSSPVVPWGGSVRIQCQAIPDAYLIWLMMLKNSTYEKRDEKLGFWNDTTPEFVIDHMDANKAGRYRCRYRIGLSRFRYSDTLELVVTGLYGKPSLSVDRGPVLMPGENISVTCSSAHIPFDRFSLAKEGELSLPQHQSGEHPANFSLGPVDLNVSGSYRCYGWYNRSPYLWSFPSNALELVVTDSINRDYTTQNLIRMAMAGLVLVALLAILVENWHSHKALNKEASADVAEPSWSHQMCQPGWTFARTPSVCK", "experiment": "FACS, transiently transfected HEK293F; - = no binding", "experimental": "as §3"}, "[13]": {"target": "T2, membrane-bound full-length human CD89", "experiment": "FACS, HEK293F-huCD89, 24 h 37C no NaN3, IgA then Ab 10 ug/mL; pre-bound heat-aggr serum IgA", "experimental": "as §2"}, "[14]": {"target": "T2, membrane-bound full-length human CD89", "experiment": "FACS, HEK293F-huCD89, half-maximum binding", "experimental": "Then, 10 μL/tube (ie, 0.1×10⁶ cells) of these cells were incubated with or without 100 μL titrated (in PBS/BSA/NaN₃) purified chimeric mouse/human anti-human CD89 antibody/tube for 30 minutes at 4° C. […] After extensive washing in PBS/BSA/NaN₃, cells were subsequently incubated with 1:200 diluted PE-conjugated goat anti-human IgG Fey-specific antibodies (Jackson ImmunoResearch) for 30 minutes at 4° C. After extensive washing in PBS/BSA/NaN₃, cells were fixed in 2% formaldehyde in PBS/BSA/NaN₃ for 30 minutes at 4° C."}, "[15]": {"target": "T2, membrane-bound full-length human CD89", "experiment": "FACS, HEK293F-huCD89, 24 h 37C no NaN3, IgA then Ab 10 ug/mL; pre-bound non-aggr serum IgA", "experimental": "as §2"}},
  "data": [
    {"binder": "mouse anti-human CD89-specific antibody 8F3 (antibody, mouse IgG1, V domains shown) VH: EVQLVESGGGLVKPGGSLKLSCAASGFTFSNYGMSWVRQTPDKRLEWVATMHSGGTYTYYPDNVKGRFTISRDNAKNNLYLQMSSLRSEDTAMYYCARETGLYDGLFDFWGQGTTLTVSS VL: DVQITQSPSYLAASPGETITINCRASKTISKYLAWYQEKPGKTNMLLIYSGSTLQSGVPSRFSGSGSGTDFTLTISSLEPEDLAMYYCQQHDEYPWTFGGGTKLEIK", "values": [
      {"measurement": "EC50", "setting": "[1]", "value": 0.052, "unit": "mg/L"},
      {"measurement": "percent IgA binding", "setting": "[2]", "value": "0 to 25", "unit": "%"},
      {"measurement": "% blocking of A59-PE binding", "setting": "[3]", "value": "< 25", "unit": "%"},
      {"measurement": "percent IgA binding", "setting": "[4]", "value": "0 to 25", "unit": "%"},
      {"measurement": "percent IgA binding (remaining)", "setting": "[5]", "value": "0 to 25", "unit": "%"},
      {"measurement": "% blocking of A3-PE binding", "setting": "[6]", "value": "< 25", "unit": "%"},
      {"measurement": "% blocking of MIP8a-PE binding", "setting": "[7]", "value": "< 25", "unit": "%"},
      {"measurement": "binding result", "setting": "[8]", "value": "binds"},
      {"measurement": "binding result", "setting": "[9]", "value": "binds"},
      {"measurement": "percent IgA binding (remaining)", "setting": "[10]", "value": "0 to 25", "unit": "%"},
      {"measurement": "binding result", "setting": "[11]", "value": "no binding (tested: 10 µg/mL)"},
      {"measurement": "binding result", "setting": "[12]", "value": "no binding (tested: 10 µg/mL)"},
      {"measurement": "percent IgA binding (remaining)", "setting": "[13]", "value": "0 to 25", "unit": "%"},
      {"measurement": "EC50", "setting": "[14]", "value": 0.714, "unit": "mg/L"},
      {"measurement": "percent IgA binding (remaining)", "setting": "[15]", "value": "0 to 25", "unit": "%"}
    ]},
    {"binder": "mouse anti-human CD89-specific antibody 10E7 (antibody, mouse IgG1, V domains shown) VH: EVQLVESGGGLVQPGGSLKLSCAASGLTFSSYGMSWVRQTPDKRLELVATINGNGDITYYPDSVKGRFTISRDNAKNTLYLQMSSLKSEDTAMYYCARDYDYDYAMDYWGQGTSVTVSS VL: DIQMTQSTSSLSASLGDSVTISCRASQDIINYLNWYQQKPDGTVKLLIYYTSRLHSGVPSRFSGSGSGTEYSLTVSNLEKEDIATYFCQQGKTLPYTFGGGTKLEIK", "values": [
      {"measurement": "EC50", "setting": "[1]", "value": 0.02, "unit": "mg/L"},
      {"measurement": "percent IgA binding", "setting": "[2]", "value": "0 to 25", "unit": "%"},
      {"measurement": "% blocking of A59-PE binding", "setting": "[3]", "value": "< 25", "unit": "%"},
      {"measurement": "percent IgA binding", "setting": "[4]", "value": "0 to 25", "unit": "%"},
      {"measurement": "percent IgA binding (remaining)", "setting": "[5]", "value": "0 to 25", "unit": "%"},
      {"measurement": "% blocking of A3-PE binding", "setting": "[6]", "value": "< 25", "unit": "%"},
      {"measurement": "% blocking of MIP8a-PE binding", "setting": "[7]", "value": "< 25", "unit": "%"},
      {"measurement": "binding result", "setting": "[8]", "value": "binds"},
      {"measurement": "binding result", "setting": "[9]", "value": "binds"},
      {"measurement": "percent IgA binding (remaining)", "setting": "[10]", "value": "0 to 25", "unit": "%"},
      {"measurement": "binding result", "setting": "[11]", "value": "no binding (tested: 10 µg/mL)"},
      {"measurement": "binding result", "setting": "[12]", "value": "no binding (tested: 10 µg/mL)"},
      {"measurement": "percent IgA binding (remaining)", "setting": "[13]", "value": "0 to 25", "unit": "%"},
      {"measurement": "EC50", "setting": "[14]", "value": 0.637, "unit": "mg/L"},
      {"measurement": "percent IgA binding (remaining)", "setting": "[15]", "value": "0 to 25", "unit": "%"}
    ]},
    {"binder": "mouse anti-human CD89-specific antibody 20B4 (antibody, mouse IgG1, V domains shown) VH: QVQLKESGPGLVAPSQSLSITCTVSGFSLTSYGVHWVRQPPGKGLEWLGIIWAGGSTSYNSALMSRLSISKDNSKSQVFLKMNSLQTDDTAMYYCARDHYDLFAYWGQGTLVTVSA VL: DILMTQSPSSMSVSLGDTVSITCHASQDISRNIGWLQQKPGKSFKGLIYHGTNLEDGVPSRFSGSGSGADYSLTISSLESEDFADYYCVQYAQFPRTFGGGTKLEIK", "values": [
      {"measurement": "EC50", "setting": "[1]", "value": 0.013, "unit": "mg/L"},
      {"measurement": "percent IgA binding", "setting": "[2]", "value": "0 to 25", "unit": "%"},
      {"measurement": "percent IgA binding", "setting": "[4]", "value": "0 to 25", "unit": "%"},
      {"measurement": "percent IgA binding (remaining)", "setting": "[5]", "value": "26 to 50", "unit": "%"},
      {"measurement": "% blocking of MIP8a-PE binding", "setting": "[7]", "value": "< 25", "unit": "%"},
      {"measurement": "binding result", "setting": "[8]", "value": "binds"},
      {"measurement": "binding result", "setting": "[9]", "value": "binds"},
      {"measurement": "percent IgA binding (remaining)", "setting": "[10]", "value": "0 to 25", "unit": "%"},
      {"measurement": "binding result", "setting": "[11]", "value": "no binding (tested: 10 µg/mL)"},
      {"measurement": "binding result", "setting": "[12]", "value": "no binding (tested: 10 µg/mL)"},
      {"measurement": "percent IgA binding (remaining)", "setting": "[13]", "value": "26 to 50", "unit": "%"},
      {"measurement": "EC50", "setting": "[14]", "value": 0.26, "unit": "mg/L"},
      {"measurement": "percent IgA binding (remaining)", "setting": "[15]", "value": "0 to 25", "unit": "%"}
    ]}
  ]
}
